The test system of this data set is ATP. Kind of data set: switch fluorescence ratio, 500 uM ATP over buffer (Cy3 cluster intensity, sum of 5 cycles each) (fold (ratio)); higher = stronger signal-on switching upon ATP binding; sequences stand for … in TCGTCGGCAGCGTCAGATGTGTATAAGAGACAGTTTTTTTTTTTTTTTTTTTTTTTTT…TC. The note with it: aptamer strand: ATP DNA aptamer (quencher-CACCTGGGGGAGTATTGCGGAGGAAGG + anchor), 100 nM annealed; ATP concentration: 500 uM. In short, it runs like this:
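Cy3-labelled switching-strand clusters on a modified Illumina MiSeq flow-cell were annealed to 100 nM quencher-labelled ATP aptamer and imaged first in selection buffer, then after 15 min with 500 uM ATP at 22 °C. NaOH stripping and re-annealing separated each of five buffer/ATP cycles, and clusters outside 100-1000 RFU were excluded. The fluorescence ratio sums target-cycle Cy3 intensity over buffer-cycle Cy3 intensity per cluster and averages it per switch-domain sequence.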

± gives the standard deviation of the averaged measurements.
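Note: ATP exposure 15 min at 22 °C before imaging.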

Consider AGCTTTGGGT, for which the switch fluorescence ratio was found to be 1.01 ± 0.016. AGGGGAGAGT: the switch fluorescence ratio was 1 ± 0.014. With GTCATAAGTG the figure was 0.982 ± 0.04. Regarding TAGGTGACAA, the switch fluorescence ratio was determined as 1 ± 0.015. With GATTGCCGTG the figure was 1.03 ± 0.024; with CACAGGCCCA, 1.04 ± 0.056; with GGGGGAAAGG, 1 ± 0.025. With TGACGGAGAA the figure was 1.01 ± 0.015; with CGTATGCGCA, 0.97 ± 0.028; with AAGGGTGGGG, 1 ± 0.058. With GGAACCAGGC the figure was 1.12 ± 0.032; with AATGGGTTTT, 0.976 ± 0.011.

Take TAGTAATCGT: the switch fluorescence ratio was 1.01 ± 0.063.

Take GGTGAAGTGC: the switch fluorescence ratio is 0.992 ± 0.068. As for GGGATTTGCT, the switch fluorescence ratio turned out to be 0.963 ± 0.022. To TTTTGACATT belongs 1.05 ± 0.032; to AAGAGGTTGC, 0.99 ± 0.044.

In the case of GGGATTAATG, the switch fluorescence ratio worked out at 1.01 ± 0.015. With GGGGAAATGG the figure was 1.01 ± 0.025. In the case of TGAAATTTTT, the switch fluorescence ratio amounted to 0.982 ± 0.029. In the case of AATGGGCGTC, the switch fluorescence ratio is 0.9902 ± 0.0069. On to ATTCTGGGTT, for which the switch fluorescence ratio was 0.987 ± 0.032.

Take TCTTTTTTTT: the switch fluorescence ratio came out at 1 ± 0.041. With ATTTTATTTT the figure was 1.01 ± 0.029; with TGGGTCAGGT, 0.9994 ± 0.0084; with GCGAGGGGGG, 1.02 ± 0.034. With ATGCATTATG the figure was 1.02 ± 0.016; with TAGTGAGTCC, 1.08 ± 0.1; with CGGGACAGTT, 1 ± 0.061. To GGTTGAGGTG belongs 1.01 ± 0.039. For the sequence CTGGGATTAT, the switch fluorescence ratio came to 0.9755 ± 0.0074. To CGTTTCATGC belongs 1.05 ± 0.056; to GAGTTAGTGT, 1.03 ± 0.017. To AGTGAGGTTG belongs 0.977 ± 0.049. To CTTGGGGATC belongs 0.979 ± 0.013. CTAGGGTTAT: the switch fluorescence ratio was determined as 1.006 ± 0.0025. With CCTAGTTTTT the figure was 0.997 ± 0.023; with ATACGCTTTT, 1.14 ± 0.14. Turning to CGTGAGTACG, the switch fluorescence ratio was 0.992 ± 0.01. For TACGGAGTGG, the switch fluorescence ratio turned out to be 1.06 ± 0.026. For the sequence TTTCCGGACG, the switch fluorescence ratio came out at 1.02 ± 0.037. As to GGCAGGGGCT, the switch fluorescence ratio stood at 1 ± 0.044. With CTCCATCGGG, the switch fluorescence ratio stood at 1.31 ± 0.033. TCGTTTAGTG: the switch fluorescence ratio stood at 0.981 ± 0.018. For GGTAACGAGG, the switch fluorescence ratio was 0.963 ± 0.039. For TAAATATGTG, the switch fluorescence ratio came out at 0.986 ± 0.021. With AAGTAAACAT the figure was 1.06 ± 0.036; with TGGGTGTAT, 1.01 ± 0.023; with GGGAAGTATA, 1 ± 0.027.

As to GTCTGGGCGA, the switch fluorescence ratio stood at 1.01 ± 0.033. Regarding ATGGGAGTAG, the switch fluorescence ratio was determined as 0.9562 ± 0.0062. As to GAAGCCGGGG, the switch fluorescence ratio stood at 0.9839 ± 0.0083. With TTTCGGTCTG, the switch fluorescence ratio was 1.006 ± 0.0075. With GGGTGGAGCT, the switch fluorescence ratio was determined as 1 ± 0.019. With GAGTATCTTT the figure was 0.998 ± 0.018.

On to AACTTACTTT, for which the switch fluorescence ratio is 1.13 ± 0.021. As to CCTCCCTTTT, the switch fluorescence ratio came out at 2.2 ± 0.4. To TTATACATGT belongs 0.973 ± 0.055; to GGAGGAGAGG, 1.01 ± 0.04. CATGTTGCTG: the switch fluorescence ratio was found to be 1.09 ± 0.029. CTAAGAATAG: the switch fluorescence ratio was 1.02 ± 0.021.

Take AAGAATGGCC: the switch fluorescence ratio turned out to be 0.954 ± 0.0032. In the case of GGTAGGAAAC, the switch fluorescence ratio came to 0.994 ± 0.045. With AGGCGATCTG the figure was 1.01 ± 0.041. To AATAAGAGTT belongs 0.995 ± 0.05; to TGTTAGGGGC, 0.98 ± 0.046. AAAGTTCGTA: the switch fluorescence ratio was 0.985 ± 0.039. For TACGTAGGGT, the switch fluorescence ratio stood at 1.19 ± 0.28. Turning to GGAGTCATGG, the switch fluorescence ratio came out at 1.045 ± 0.0073. Consider GATTTGGTCT, for which the switch fluorescence ratio is 1.04 ± 0.035. To GGATCCGTTG belongs 0.978 ± 0.021. With CAAGGGGGGC the figure was 0.972 ± 0.03; with GACGGGGATG, 1.03 ± 0.012; with CAGCTCGGTC, 0.9687 ± 0.0082. On to GGAAAGACCG, for which the switch fluorescence ratio was 1 ± 0.012.

With CAGCGTATTG, the switch fluorescence ratio is 1.04 ± 0.037. Regarding TGAATGATGG, the switch fluorescence ratio stood at 1.02 ± 0.015. In the case of TGCAATGCAC, the switch fluorescence ratio was found to be 1.558 ± 0.0038.

Regarding CATATTATGG, the switch fluorescence ratio was determined as 0.981 ± 0.036. Regarding TAAAAATTGC, the switch fluorescence ratio was found to be 1.02 ± 0.048.

With TATGTGTGCG, the switch fluorescence ratio was found to be 1.02 ± 0.017.

In the case of AAATGGGGAT, the switch fluorescence ratio was 1.01 ± 0.032. Consider TTTTTGTAAT, for which the switch fluorescence ratio stood at 1.04 ± 0.055.

Regarding GAGGTGGGTG, the switch fluorescence ratio was 1.015 ± 0.0056. To TTGCTACATA belongs 1.07 ± 0.011; to TCTTGTTGGG, 1.01 ± 0.023; to GGTACGTGCA, 0.99 ± 0.024.

Turning to CTGTAATAAG, the switch fluorescence ratio came out at 1.09 ± 0.075.

Take CTGGGAGATG: the switch fluorescence ratio is 0.99088 ± 0.00019. With TTTGTTAGCA the figure was 0.98708 ± 0.0008.

For CCTCTGGTTT, the switch fluorescence ratio was determined as 2.84 ± 0.37. As to CATTTACTAT, the switch fluorescence ratio worked out at 1.05 ± 0.021. To TCAGGGGGAC belongs 1.78 ± 1.3; to TGTGGGGCGG, 1.01 ± 0.051. With ATATTCTGAA the figure was 0.976 ± 0.017; with ACAAGGGGGG, 1 ± 0.045; with CTATTTTGGT, 0.9784 ± 0.0079. Turning to CTGCAATAGA, the switch fluorescence ratio worked out at 4.41 ± 0.16.

As to ACTCGCAGGG, the switch fluorescence ratio was found to be 1.073 ± 0.0016.

For TAGATAAATT, the switch fluorescence ratio stood at 0.9965 ± 0.008. Turning to TACTAATTGG, the switch fluorescence ratio came to 0.9961 ± 0.0086.

As for ATAACGTACT, the switch fluorescence ratio came out at 1.84 ± 0.18. With TGGGCGCCGG the figure was 1 ± 0.013. With ATTGGAGGGG the figure was 1.008 ± 0.0041. With TGGTGTCTAT the figure was 1.007 ± 0.0087; with TTTATTTGCG, 0.9875 ± 0.0067.

Regarding AGCTTACTGT, the switch fluorescence ratio came to 1.08 ± 0.019. For the sequence GGGAGAGGCT, the switch fluorescence ratio worked out at 0.9764 ± 0.0016. To TATCAGTAGG belongs 0.981 ± 0.021. With GGTATGTTTT the figure was 0.978 ± 0.037; with AAGTTCACGG, 1.06 ± 0.025.

On to GAAAGTTTGG, for which the switch fluorescence ratio came out at 1.01 ± 0.017.

In the case of GTAATTTAGT, the switch fluorescence ratio came to 1.02 ± 0.022. With TAGGGTAGGT the figure was 0.974 ± 0.0049; with CAGCATAGAT, 1.08 ± 0.023. Regarding GGACTCTGGG, the switch fluorescence ratio amounted to 0.966 ± 0.058.

For the sequence ATAGAGGTGA, the switch fluorescence ratio was found to be 1.019 ± 0.0022. Take ATTGAGGATG: the switch fluorescence ratio came out at 1.07 ± 0.17. For TGGGGAAAAA, the switch fluorescence ratio stood at 1.07 ± 0.11.

For the sequence GTGATTAATC, the switch fluorescence ratio was found to be 1.01 ± 0.075.

For the origin of these results see the supplement of paper PMC10126150.
